The results in this text go back to the supplement of paper PMC9112550, “Optimization of the antimicrobial peptide Bac7 by deep mutational scanning” (BMC Biology, 2022).

The subject of the data set is Escherichia coli TOP10. Kind of data set: shrunken log2 fold change of peptide-encoding DNA abundance (4.5 h post-induction vs induction); higher = less antimicrobial activity (less host growth inhibition). As to conditions: time post-induction: 4.5 h; library: site-saturation at positions 5, 18, 19, 20.
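Further: peptides expressed intracellularly from a pBAD plasmid library in pooled LB shake-flask culture, induced with 0.3% L-arabinose, DNA abundance read by NGS, three biological replicates, DESeq2 with apeglm shrinkage.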

On to RRIRFRPPRLPRPRPRPNRDPRP, for which the “shrunken log2 fold change” value is -0.0824. Regarding RRIRLRPPRLPRPRPRPGWHPRP, the “shrunken log2 fold change” value was 0.13.

For the sequence RRIRERPPRLPRPRPRPEKTPRP, the “shrunken log2 fold change” value is -0.031. As for RRIRTRPPRLPRPRPRPCMAPRP, the “shrunken log2 fold change” value is -0.172.

Regarding RRIRMRPPRLPRPRPRPSQKPRP, the “shrunken log2 fold change” value stood at 0.246. As to RRIRNRPPRLPRPRPRPHSCPRP, the “shrunken log2 fold change” value was -0.00198. Next, RRIRIRPPRLPRPRPRPEYEPRP: -0.0111; RRIRKRPPRLPRPRPRPWQCPRP: -0.00136. As to RRIRRRPPRLPRPRPRPYFYPRP, the “shrunken log2 fold change” value is -0.683.

For RRIRHRPPRLPRPRPRPATPPRP, the “shrunken log2 fold change” value came out at 0.299. With RRIRARPPRLPRPRPRPVDRPRP, the “shrunken log2 fold change” value stood at 0.193. Next, RRIRARPPRLPRPRPRPHTTPRP: -0.481; RRIRDRPPRLPRPRPRPNRCPRP: 0.0339; RRIRNRPPRLPRPRPRPARFPRP: 0.0266. To RRIRDRPPRLPRPRPRPVLHPRP belongs 0.0367; to RRIRSRPPRLPRPRPRPCREPRP, 0.157. For the sequence RRIRFRPPRLPRPRPRPKCKPRP, the “shrunken log2 fold change” value was found to be 0.00614.

Consider RRIRDRPPRLPRPRPRPKTFPRP, for which the “shrunken log2 fold change” value worked out at 0.00972. Next, RRIRKRPPRLPRPRPRPKYYPRP: -0.0776; RRIRIRPPRLPRPRPRPNLAPRP: -0.114.

Regarding RRIRYRPPRLPRPRPRPFSMPRP, the “shrunken log2 fold change” value was -0.00208. Take RRIRFRPPRLPRPRPRPESMPRP: the “shrunken log2 fold change” value is -0.188. As to RRIRDRPPRLPRPRPRPIDDPRP, the “shrunken log2 fold change” value turned out to be 0.224.

As to RRIRKRPPRLPRPRPRPATFPRP, the “shrunken log2 fold change” value is -0.0215. Next, RRIRIRPPRLPRPRPRPQQEPRP: -0.056. For RRIRMRPPRLPRPRPRPNHEPRP, the “shrunken log2 fold change” value was determined as 0.0645.

For RRIRHRPPRLPRPRPRPGDPPRP, the “shrunken log2 fold change” value amounted to 0.219.

As for RRIRPRPPRLPRPRPRPTDKPRP, the “shrunken log2 fold change” value was 0.0429. To RRIRERPPRLPRPRPRPLHRPRP belongs -0.0862; to RRIRPRPPRLPRPRPRPHPFPRP, -0.115; to RRIRARPPRLPRPRPRPDCVPRP, 0.813. With RRIRRRPPRLPRPRPRPNTEPRP, the “shrunken log2 fold change” value was 0.119.

RRIRVRPPRLPRPRPRPFQVPRP: the “shrunken log2 fold change” value is -0.0887. For RRIRHRPPRLPRPRPRPDFMPRP, the “shrunken log2 fold change” value was -0.0635. Consider RRIRERPPRLPRPRPRPWIAPRP, for which the “shrunken log2 fold change” value is -0.0555. Next, RRIRQRPPRLPRPRPRPNINPRP: -0.633; RRIRWRPPRLPRPRPRPRDWPRP: 0.958. Turning to RRIRCRPPRLPRPRPRPKWSPRP, the “shrunken log2 fold change” value is 0.0876. Regarding RRIRDRPPRLPRPRPRPGEPPRP, the “shrunken log2 fold change” value turned out to be 0.613.

Turning to RRIRKRPPRLPRPRPRPGGRPRP, the “shrunken log2 fold change” value amounted to 1.91. Take RRIRQRPPRLPRPRPRPRPKPRP: the “shrunken log2 fold change” value was 0.936. On to RRIRTRPPRLPRPRPRPHCEPRP, for which the “shrunken log2 fold change” value stood at 0.023. To RRIRGRPPRLPRPRPRPYAKPRP belongs -0.0213; to RRIRQRPPRLPRPRPRPVAYPRP, -0.0015; to RRIRSRPPRLPRPRPRPEINPRP, 0.0112. On to RRIRGRPPRLPRPRPRPTVIPRP, for which the “shrunken log2 fold change” value amounted to 0.107.

On to RRIRCRPPRLPRPRPRPDKNPRP, for which the “shrunken log2 fold change” value is -0.369. With RRIRERPPRLPRPRPRPVAVPRP, the “shrunken log2 fold change” value was -0.0937.

On to RRIRLRPPRLPRPRPRPWIQPRP, for which the “shrunken log2 fold change” value is -0.355. Consider RRIRGRPPRLPRPRPRPHCYPRP, for which the “shrunken log2 fold change” value turned out to be 0.0539.

For RRIRERPPRLPRPRPRPNRGPRP, the “shrunken log2 fold change” value is -0.00351. In the case of RRIRYRPPRLPRPRPRPYDQPRP, the “shrunken log2 fold change” value was -0.124. Next, RRIRPRPPRLPRPRPRPMAIPRP: -0.0296. Next, RRIRARPPRLPRPRPRPSIKPRP: -0.133; RRIRIRPPRLPRPRPRPNETPRP: -0.0216. To RRIRHRPPRLPRPRPRPHHQPRP belongs -0.364; to RRIRRRPPRLPRPRPRPQCNPRP, 0.0615. With RRIRCRPPRLPRPRPRPIFFPRP, the “shrunken log2 fold change” value is -0.0793. As for RRIRTRPPRLPRPRPRPRWCPRP, the “shrunken log2 fold change” value worked out at 0.109. In the case of RRIRQRPPRLPRPRPRPHHDPRP, the “shrunken log2 fold change” value was -0.000328. Consider RRIRMRPPRLPRPRPRPNNQPRP, for which the “shrunken log2 fold change” value is -0.0328.

On to RRIRCRPPRLPRPRPRPYRIPRP, for which the “shrunken log2 fold change” value is -0.263.

Turning to RRIRHRPPRLPRPRPRPPPNPRP, the “shrunken log2 fold change” value worked out at 0.814. On to RRIRHRPPRLPRPRPRPGEKPRP, for which the “shrunken log2 fold change” value was -0.102.

With RRIRYRPPRLPRPRPRPPRFPRP, the “shrunken log2 fold change” value worked out at 0.0549.

RRIRGRPPRLPRPRPRPKINPRP: the “shrunken log2 fold change” value is 0.426. To RRIRNRPPRLPRPRPRPKKIPRP belongs -0.187. Regarding RRIRQRPPRLPRPRPRPNNHPRP, the “shrunken log2 fold change” value is -0.71.

Take RRIRHRPPRLPRPRPRPTNEPRP: the “shrunken log2 fold change” value was -0.512. To RRIRCRPPRLPRPRPRPMYCPRP belongs -1.66; to RRIRARPPRLPRPRPRPEQHPRP, 0.562; to RRIRRRPPRLPRPRPRPPHMPRP, 1.11. Regarding RRIRCRPPRLPRPRPRPTDPPRP, the “shrunken log2 fold change” value amounted to 0.102.

Turning to RRIRGRPPRLPRPRPRPQWTPRP, the “shrunken log2 fold change” value stood at 0.319. On to RRIRWRPPRLPRPRPRPAYQPRP, for which the “shrunken log2 fold change” value turned out to be 0.106. In the case of RRIRYRPPRLPRPRPRPFFGPRP, the “shrunken log2 fold change” value was -0.225. Next, RRIRPRPPRLPRPRPRPLAFPRP: -0.0389; RRIRSRPPRLPRPRPRPMYVPRP: -0.84. For RRIRDRPPRLPRPRPRPRTTPRP, the “shrunken log2 fold change” value worked out at 0.0893. For RRIRWRPPRLPRPRPRPIGPPRP, the “shrunken log2 fold change” value is -0.0272. With RRIRLRPPRLPRPRPRPGSVPRP, the “shrunken log2 fold change” value is 0.0433. Regarding RRIRKRPPRLPRPRPRPDGWPRP, the “shrunken log2 fold change” value was found to be 0.152. To RRIRPRPPRLPRPRPRPRVVPRP belongs 0.341; to RRIRCRPPRLPRPRPRPQPWPRP, 0.125. In the case of RRIRNRPPRLPRPRPRPTYRPRP, the “shrunken log2 fold change” value was -0.0805. To RRIRCRPPRLPRPRPRPEMMPRP belongs 0.0935. Take RRIRDRPPRLPRPRPRPKNCPRP: the “shrunken log2 fold change” value is -0.15. Next, RRIRRRPPRLPRPRPRPNNVPRP: -0.312. For the sequence RRIRPRPPRLPRPRPRPCNNPRP, the “shrunken log2 fold change” value is -0.177. Next, RRIRARPPRLPRPRPRPLNNPRP: -0.346; RRIRPRPPRLPRPRPRPDPNPRP: -0.133; RRIRCRPPRLPRPRPRPTRSPRP: 0.643. Turning to RRIRLRPPRLPRPRPRPQRCPRP, the “shrunken log2 fold change” value is 0.487.

With RRIRLRPPRLPRPRPRPEVGPRP, the “shrunken log2 fold change” value was -0.0231. To RRIRNRPPRLPRPRPRPMLMPRP belongs -0.0217. Next, RRIRMRPPRLPRPRPRPEFCPRP: 1.18; RRIRHRPPRLPRPRPRPVNDPRP: -0.0193. Turning to RRIRDRPPRLPRPRPRPGMVPRP, the “shrunken log2 fold change” value was 0.548. To RRIRNRPPRLPRPRPRPNKNPRP belongs -0.406; to RRIRERPPRLPRPRPRPSRDPRP, -0.12; to RRIRARPPRLPRPRPRPVGTPRP, 0.441. To RRIRPRPPRLPRPRPRPQIQPRP belongs -0.286; to RRIRKRPPRLPRPRPRPIDNPRP, 0.0107. To RRIRYRPPRLPRPRPRPLPTPRP belongs -0.0873. With RRIRNRPPRLPRPRPRPTMDPRP, the “shrunken log2 fold change” value was -0.266. To RRIRIRPPRLPRPRPRPSDNPRP belongs -0.421. Next, RRIRGRPPRLPRPRPRPPDQPRP: 1.14; RRIRQRPPRLPRPRPRPPHVPRP: 0.15.

On to RRIRDRPPRLPRPRPRPFIYPRP, for which the “shrunken log2 fold change” value was -0.115. As to RRIRARPPRLPRPRPRPGQFPRP, the “shrunken log2 fold change” value came to 0.109.

For RRIRKRPPRLPRPRPRPFYAPRP, the “shrunken log2 fold change” value was -0.0279. To RRIRTRPPRLPRPRPRPAVTPRP belongs 0.102; to RRIRPRPPRLPRPRPRPLDGPRP, 0.0208; to RRIRDRPPRLPRPRPRPRGCPRP, 0.786. In the case of RRIRVRPPRLPRPRPRPMLKPRP, the “shrunken log2 fold change” value is -0.293. Next, RRIRGRPPRLPRPRPRPTYDPRP: 0.361. In the case of RRIRDRPPRLPRPRPRPDEIPRP, the “shrunken log2 fold change” value was 0.0508. As for RRIRKRPPRLPRPRPRPAFIPRP, the “shrunken log2 fold change” value is 0.129. Next, RRIRGRPPRLPRPRPRPLQGPRP: 0.226. On to RRIRVRPPRLPRPRPRPSCRPRP, for which the “shrunken log2 fold change” value is -0.0227. Turning to RRIRMRPPRLPRPRPRPCIVPRP, the “shrunken log2 fold change” value is -0.0122. In the case of RRIRHRPPRLPRPRPRPTKAPRP, the “shrunken log2 fold change” value was -0.0108.

As for RRIRVRPPRLPRPRPRPWRRPRP, the “shrunken log2 fold change” value amounted to 0.208. As to RRIRKRPPRLPRPRPRPWMIPRP, the “shrunken log2 fold change” value was 0.0508.

For RRIRVRPPRLPRPRPRPNVPPRP, the “shrunken log2 fold change” value was -0.345.
